Data as given in patent US6358728B1, “Mutations in nucleic acid molecules encoding 11-CIS retinol dehydrogenase, the mutated proteins, and uses thereof” (The President & Fellows of Havard College, priority 1999, dated 2002).
Substitutions are numbered along the chain they refer to. Values belong to the molecule of their own block, whether it stands above or below them.

Experiments:
[1] = biological target: T1, wild type 11-cis retinol dehydrogenase (Homo sapiens, UniProt Q92781); assay: Km and Vmax of wild type enzyme, oxidation of 11-cis retinol to 11-cis retinal by microsomes, HPLC; format: biochemical; settings: 2 μg microsomal protein, 8-minute incubations, 5 mM NAD, 37° C., Lineweaver-Burk, average of duplicates 7.1 and 9.6
T1 construct: expressed in transfected cells; host or cells: COS-1 cells (microsomes), vector pSG5
T1 sequence (Q92781 1-318): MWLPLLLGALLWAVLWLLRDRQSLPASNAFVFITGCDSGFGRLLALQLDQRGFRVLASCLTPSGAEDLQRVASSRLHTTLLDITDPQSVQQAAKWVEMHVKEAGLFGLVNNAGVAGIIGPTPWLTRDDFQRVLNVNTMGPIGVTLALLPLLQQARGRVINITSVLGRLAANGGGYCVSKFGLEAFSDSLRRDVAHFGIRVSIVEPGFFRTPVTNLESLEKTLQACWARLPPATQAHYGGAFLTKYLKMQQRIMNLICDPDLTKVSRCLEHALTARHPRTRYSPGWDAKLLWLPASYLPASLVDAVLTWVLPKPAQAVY
Method: To monitor the ability of the wild-type and mutant enzymes to catalyze the oxidation of 11-cis retinol to 11-cis retinal, 11-cis retinol, which had been synthesized by reduction of 11-cis retinal with NaBH4 and stored under argon at −80° C., was added to reaction mixtures containing microsomes from the transfected cells.
The enzyme reactions, in a total volume of 100 μp were carried out in 50 mM Tris-HCl buffer pH7.5 containing 5 mM NAD or NADH, […] 11-cis retinol, or 11-cis retinal, and microsomes at 37° C. All manipulations of retinoids were performed in dim light. The reactions were stopped by putting the tubes on ice, and the retinoids were immediately extracted with 200 μl n-hexane. Subsequently, 75 μl aliquots were analyzed by reverse-phase HPLC using a C18 column. The mobile phase was acetonitrile/water (85/15, v/v), and the column was eluted under isocratic conditions at a flow rate of 1 ml/min. 11-cis retinol and 11-cis retinal eluted at 12.0-12.2 and 14.0-14.3 minutes, respectively. Retinoids were quantified at 320 and 370 nm. […] Formed 11-cis retinal was quantified in the HPLC analyses, and the Km and Vmax values were calculated from Lineweaver-Burk plots. The values were compensated for the extraction efficiency (60-70%, as determined experimentally).

[2] = system: 11-cis retinol dehydrogenase (RDH5); assay: Relative activities of wild type and mutant enzymes, oxidation of 11-cis retinol (forward reaction), microsomes, HPLC; format: biochemical, human; settings: for ability to catalyze oxidation of 11-cis-retinol to 11-cis-retinal: 10 minutes at 37° C., 5 mM NAD, 50 μM 11-cis-retinol, mutant 20 μg, wild type 2 μg microsomes; for fold activity above background activity (mock transformants) / fold less activity than wild type enzyme: after 40 minutes incubation
Method: (§1) The relative activities of the wild type and mutant enzymes were then determined. To do this, microsomes containing a mutant enzyme (20 μg), or wild type enzyme(2 μg) together with 18 μg of microsomal protein from mock-transfected cells, to standardize the experimental conditions, or no enzyme were combined with 50 mM Tris-HCl buffer (pH 7.5), containing 5 mM of NAD, and 50 μM 11-cis-retinol (forward, oxidation reaction) or 5 mM NADH and 50 μM 11-cis-retinal (reverse, reduction reaction) in a total volume of 100 μl. 50 μM 11-cis retinol is approximately a seven-fold higher substrate concentration than the estimated Km value for the wild-type enzyme. The mixtures were incubated for 10 minutes at 37° C., after which the reactions were stopped by putting the mixtures on ice. Retinoids were extracted immediately with 200 μl of n-hexane. Subsequently, 75 μl aliquots were analyzed via reversed phase HPLC using a C18 column. The mobile phase was acetonitrile/water (85:15 v/v), and the column was eluted under isocratic conditions at a flow rate of 1 ml/min. The 11-cis-retinol eluted at 12.0-12.2 minutes, and 11-cis-retinal at 14.0-14.3 minutes. Retinoids were quantified at 320 (retinol) and 370 (retinal) nm. Relative activities of wild-type and mutant enzymes were calculated as the ratio of formed 11-cis retinal by transfected versus mock-transfected microsomes. The results were normalized for the total extracted retinoid content from each reaction.
The Gly238Trp mutant was tested further, to determine if it had any activity, by incubating for 20 and 40 minute periods before extracting retinoids. Wild type and Ser73Phe mutant were used as controls.

[3] = biological target: T2, 11-cis retinol dehydrogenase (RDH5) (Homo sapiens, UniProt Q92781); assay: Relative activities of wild type and mutant enzymes, reduction of 11-cis retinal (reverse reaction), microsomes, HPLC; format: biochemical; settings: 10 minutes at 37° C., 5 mM NADH, 50 μM 11-cis-retinal
T2 construct: expressed in transfected cells; host or cells: COS-1 cells (microsomes), vector pSG5
T2 sequence (Q92781 1-318): T1 sequence (Q92781 1-318)
Method: as §1, with “The results were normalized for the total extracted retinoid content from each reaction.” left out

Molecule: CC1=C(/C=C/C(C)=C/C=C\C(C)=C\CO)C(C)(C)CCC1 [11-cis retinol]
- Vmax [1]: 8.4 nmol/mg protein/minute

B1: wild type enzyme: wild type human 11-cis retinol dehydrogenase (RDH5) expressed in COS-1 cells (protein, UniProt Q92781 1-318, looked up)
Retinol dehydrogenase 5: T1 sequence (Q92781 1-318)
- ability to catalyze oxidation of 11-cis-retinol to 11-cis-retinal [2]: exhibited the expected ability to catalyze the oxidation
- fold activity above background activity (mock transformants) [2]: 42.9 ± 4.5 fold
- ability to catalyze reduction of 11-cis-retinal to 11-cis-retinol (reverse reaction) [3]: catalyzed the reverse reaction

Further lines, results first:

- ability to catalyze oxidation of 11-cis-retinol to 11-cis-retinal [2]: no activity above background level
- fold activity above background activity (mock transformants) [2]: 2.2±0.14 fold
- fold less activity than wild type enzyme [2]: approximately 19 fold
B2: Gly238Trp mutant: mutant human 11-cis retinol dehydrogenase (RDH5), Gly to Trp at amino acid 238 (protein, UniProt Q92781 1-318, looked up, variant G238W)
Retinol dehydrogenase 5: T1 sequence (Q92781 1-318) with G238W

- ability to catalyze oxidation of 11-cis-retinol to 11-cis-retinal [2]: residual activity
- fold activity above background activity (mock transformants) [2]: 9.1±1 fold
- fold less activity than wild type enzyme [2]: approximately 5 fold
B3: Ser73Phe mutant: mutant human 11-cis retinol dehydrogenase (RDH5), Ser to Phe at amino acid 73 (protein, UniProt Q92781 1-318, looked up, variant S73F)
Retinol dehydrogenase 5: T1 sequence (Q92781 1-318) with S73F
